Assay results taken from publication PMC4022731 (PLoS Pathogens, 2014).

Molecular target: Flag-tagged HCMV gp68 expressed by recombinant vaccinia virus (human cytomegalovirus, UniProt P16739)
Assay: co-IP
Settings: one partner purified

Flag-tagged HCMV gp68 expressed by recombinant vaccinia virus, sequence (P16739 24-345): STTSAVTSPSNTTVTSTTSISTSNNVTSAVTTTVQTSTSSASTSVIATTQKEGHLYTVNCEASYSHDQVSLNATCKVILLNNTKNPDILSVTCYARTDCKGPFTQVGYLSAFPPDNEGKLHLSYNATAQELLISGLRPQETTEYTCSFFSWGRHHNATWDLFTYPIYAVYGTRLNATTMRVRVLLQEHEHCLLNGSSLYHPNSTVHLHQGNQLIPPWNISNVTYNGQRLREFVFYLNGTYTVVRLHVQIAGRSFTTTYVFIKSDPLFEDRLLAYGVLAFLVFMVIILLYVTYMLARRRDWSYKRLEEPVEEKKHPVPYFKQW

B1: palivizumab (antibody, V domains shown)
VH: QVTLRESGPALVKPTQTLTLTCTFSGFSLSTSGMSVGWIRQPPGKALEWLADIWWDDKKDYNPSLKSRLTISKDTSKNQVVLKVTNMDPADTATYYCARSMITNWYFDVWGAGTTVTVSS
VL: DIQMTQSPSTLSASVGDRVTITCKCQLSVGYMHWYQQKPGKAPKLLIYDTSKLASGVPSRFSGSGSGTEFTLTISSLQPDDFATYYCFQGSGYPFTFGGGTKLEIK
notes: also called IgG1 isotype control antibody; source: bought: MedImmune
Does B1 bind?
Result: binds
